Source: the supplement of paper PMC7877785
± gives the uncertainty stated by the source.

Experiment: self-splicing fitness, log relative to wild type (ln ratio); higher = more splicing; Tetrahymena group I intron in knt gene, E. coli kanamycin selection, DiMSum; sequences stand for … in CUCUCU…GGAGGGAAAAGUUAUCAGGCAUGCACCUGGUAGCUAGUCUUUAAACCAAUAGAUUGCAUCGGUUUAAAAGGCAAGACCGUCAAAUUGCGGGAAAGGGGUCAACAGCCGUUCAGUACCAAGUCUCAGGGGAAACUUUGAGAUGGCCUUGCAAAGGGUAUGGUAAUAAGCUGACGGACAUGGUCCUAACCACGCAGCCAAGUCCUAAGUCAACAGAUCUUCUGUUGAUAUGGAUGCAGUUCACAGACUAAAUGUCGGUCGGGGAAGAUGUAUUCUUCUCAUAAGAUAUAGUCGGACCUCUCCUUAAUGGGAGCUAGCGGAUGAAGUGAUGCAACACUGGAGCCGCUGGGAACUAAUUUGUAUGCGAAAGUAUAUUGAUUAGUUUUGGAGUACUCGUGGUCG
Procedure, shortened: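 Pooled colonies went to amplicon sequencing on an Illumina HiSeq 2500 after six replicate transformations. The plates were LB agar with 100 μg/mL carbenicillin, 50 μM IPTG and 0.2% rhamnose, with or without 25 μg/mL kanamycin, incubated overnight at 37°C or 30°C. The E. coli BL21(DE3) library had all eight P1ex-region intron nucleotides randomised, the intron placed in the knt kanamycin-resistance gene on pET-22b(+). DiMSum fitness is the error-weighted combination of replicate fold changes, kanamycin against none, normalised to wild type.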

Row | Sequence | self-splicing fitness (ln) (30 °C) | self-splicing fitness (ln) (37 °C)
1 | AUAAAGCAAUAUUACGGUUU | -0.835 ± 0.072 | -0.0425 ± 0.098
2 | AUAAAGCAAUAUUACGUAAG | -2.08 ± 0.1 | -0.84 ± 0.11
3 | AUAAAGCAAUAUUACGUCCA | -0.469 ± 0.098 | 0.194 ± 0.16
4 | AUAAAGCAAUAUUACGUCGC | -2.83 ± 0.25 | -1.41 ± 0.19
5 | AUAAAGCAAUAUUACGUGCA | -0.0876 ± 0.067 | 0.348 ± 0.093
6 | AUAAAGCAAUAUUACGUGCC | -0.00478 ± 0.083 | 0.162 ± 0.12
7 | AUACAGCAAUAUUACGACCA | -0.419 ± 0.15 | -0.298 ± 0.17
8 | AUACAGCAAUAUUACGACGU | -0.374 ± 0.068 | 0.174 ± 0.084
9 | AUACAGCAAUAUUACGAGGG | -3.68 ± 0.2 | -2.21 ± 0.19
10 | AUACAGCAAUAUUACGAGGU | -3.04 ± 0.11 | -1.84 ± 0.11
11 | AUACAGCAAUAUUACGAGUA | -1.76 ± 0.16 | -0.461 ± 0.1
12 | AUACAGCAAUAUUACGAGUG | -2.32 ± 0.073 | -1.34 ± 0.093
13 | AUACAGCAAUAUUACGCAGG | -2.78 ± 0.14 | -0.332 ± 0.11
14 | AUACAGCAAUAUUACGCAGU | -2.88 ± 0.23 | -2.74 ± 0.22
15 | AUACAGCAAUAUUACGCCAG | -1.79 ± 0.14 | -2.03 ± 0.2
16 | AUACAGCAAUAUUACGCGGG | -3.46 ± 0.15 | -1.75 ± 0.11
17 | AUACAGCAAUAUUACGCGUC | -3.72 ± 0.14 | -2.6 ± 0.13
18 | AUACAGCAAUAUUACGGGAA | -2.72 ± 0.17 | -1.51 ± 0.13
19 | AUACAGCAAUAUUACGGGCU | -2.77 ± 0.11 | -1.29 ± 0.12
20 | AUACAGCAAUAUUACGUACA | -0.262 ± 0.081 | -0.215 ± 0.11
21 | AUACAGCAAUAUUACGUAUG | -2.42 ± 0.16 | -2.52 ± 0.18
22 | AUACAGCAAUAUUACGUCGU | -1.3 ± 0.07 | -0.0346 ± 0.077
23 | AUACAGCAAUAUUACGUUUA | -1.73 ± 0.078 | -1.07 ± 0.084
24 | AUAGAGCAAUAUUACGACCA | -2.34 ± 0.18 | -1.49 ± 0.27

Row | Sequence | self-splicing fitness (ln) (30 °C) | self-splicing fitness (ln) (37 °C)
25 | AUAGAGCAAUAUUACGACGG | -2.52 ± 0.18 | -0.742 ± 0.26
26 | AUAGAGCAAUAUUACGAUAA | -1.23 ± 0.16 | -0.812 ± 0.23
27 | AUAGAGCAAUAUUACGCACU | -0.797 ± 0.14 | 0.815 ± 0.14
28 | AUAGAGCAAUAUUACGCAUA | -0.926 ± 0.16 | -0.513 ± 0.26
29 | AUAGAGCAAUAUUACGCCAA | -2.44 ± 0.24 | -0.839 ± 0.3
30 | AUAGAGCAAUAUUACGCGAA | -1.34 ± 0.093 | -1.1 ± 0.11
31 | AUAGAGCAAUAUUACGCGCC | -1.86 ± 0.32 | -0.949 ± 0.28
32 | AUAGAGCAAUAUUACGCGGG | -2.17 ± 0.12 | -2.33 ± 0.16
33 | AUAGAGCAAUAUUACGCGUG | -0.385 ± 0.11 | -1.09 ± 0.13
34 | AUAGAGCAAUAUUACGCUAU | -2.49 ± 0.18 | -2.34 ± 0.3
35 | AUAGAGCAAUAUUACGGCAC | -1.75 ± 0.14 | -0.686 ± 0.2
36 | AUAGAGCAAUAUUACGGGAA | -3.43 ± 0.26 | -2.46 ± 0.25
37 | AUAGAGCAAUAUUACGGUGC | -1.96 ± 0.15 | -2.21 ± 0.46
38 | AUAGAGCAAUAUUACGUAAU | -0.582 ± 0.1 | 0.244 ± 0.12
39 | AUAGAGCAAUAUUACGUAUU | -2.46 ± 0.16 | -1.1 ± 0.17
40 | AUAGAGCAAUAUUACGUCCC | -2.36 ± 0.48 | –
41 | AUAGAGCAAUAUUACGUUAG | -1.39 ± 0.11 | -1.21 ± 0.16
42 | AUAGAGCAAUAUUACGUUCC | -2.27 ± 0.22 | -1.53 ± 0.23
43 | AUAUAGCAAUAUUACGACUG | -1.47 ± 0.14 | -1.65 ± 0.21
44 | AUAUAGCAAUAUUACGAGGG | -2.57 ± 0.43 | –
45 | AUAUAGCAAUAUUACGAGUA | -2.18 ± 0.2 | -1.04 ± 0.16
46 | AUAUAGCAAUAUUACGAGUG | -2.78 ± 0.19 | -1.8 ± 0.2
47 | AUAUAGCAAUAUUACGAUCG | -1.94 ± 0.12 | -0.815 ± 0.14
48 | AUAUAGCAAUAUUACGAUUA | -0.958 ± 0.23 | -0.617 ± 0.2

Row | Sequence | self-splicing fitness (ln) (30 °C) | self-splicing fitness (ln) (37 °C)
49 | AUAUAGCAAUAUUACGCAAG | -2.34 ± 0.22 | -0.955 ± 0.21
50 | AUAUAGCAAUAUUACGCUCU | -0.66 ± 0.18 | -0.594 ± 0.18
51 | AUAUAGCAAUAUUACGCUUU | -2.12 ± 0.41 | -1.34 ± 0.31
52 | AUAUAGCAAUAUUACGGAAC | -2.89 ± 0.41 | –
53 | AUAUAGCAAUAUUACGGAGU | -2.29 ± 0.13 | -1.82 ± 0.2
54 | AUAUAGCAAUAUUACGGCCC | -0.72 ± 0.15 | -0.205 ± 0.24
55 | AUAUAGCAAUAUUACGGUGA | -1.72 ± 0.2 | -1.11 ± 0.2
56 | AUAUAGCAAUAUUACGUCUG | -2.35 ± 0.1 | -0.0249 ± 0.12
57 | AUAUAGCAAUAUUACGUGCA | -1.57 ± 0.16 | 0.00562 ± 0.16
58 | AUAUAGCAAUAUUACGUGCC | -1.82 ± 0.38 | -1.01 ± 0.41
59 | AUAUAGCAAUAUUACGUUGU | -3.79 ± 0.29 | –
60 | AUAUAGCAAUAUUACGUUUA | -2.02 ± 0.25 | -1.63 ± 0.2
61 | AUCAAGCAAUAUUACGAAAC | -3.16 ± 0.2 | -3.17 ± 0.28
62 | AUCAAGCAAUAUUACGACAA | -1 ± 0.12 | -0.427 ± 0.12
63 | AUCAAGCAAUAUUACGACAG | -3.07 ± 0.17 | -1.7 ± 0.18
64 | AUCAAGCAAUAUUACGCACC | -0.849 ± 0.26 | -0.581 ± 0.31
65 | AUCAAGCAAUAUUACGCGAC | -2.01 ± 0.23 | -1.58 ± 0.22
66 | AUCAAGCAAUAUUACGCGGG | -2.86 ± 0.14 | -1.04 ± 0.12
67 | AUCAAGCAAUAUUACGCGGU | -4.07 ± 0.19 | -2.03 ± 0.16
68 | AUCAAGCAAUAUUACGCUCA | 0.0216 ± 0.073 | 0.342 ± 0.096
69 | AUCAAGCAAUAUUACGGAUA | -2.42 ± 0.16 | -1.83 ± 0.15
70 | AUCAAGCAAUAUUACGGGAA | -1.87 ± 0.13 | -0.563 ± 0.12
71 | AUCAAGCAAUAUUACGGGCU | -1.86 ± 0.079 | -0.884 ± 0.087
72 | AUCAAGCAAUAUUACGUAUC | -4.11 ± 0.21 | -2.76 ± 0.34

Row | Sequence | self-splicing fitness (ln) (30 °C) | self-splicing fitness (ln) (37 °C)
73 | AUCAAGCAAUAUUACGUUCC | -2.85 ± 0.13 | -0.598 ± 0.17
74 | AUCCAGCAAUAUUACGAAGC | -2.53 ± 0.16 | -2.28 ± 0.23
75 | AUCCAGCAAUAUUACGAGCA | -1.14 ± 0.14 | -1.1 ± 0.11
76 | AUCCAGCAAUAUUACGAGGC | -1.97 ± 0.16 | -1.41 ± 0.23
77 | AUCCAGCAAUAUUACGCACA | -0.451 ± 0.098 | 0.366 ± 0.1
78 | AUCCAGCAAUAUUACGCAGC | -1.43 ± 0.13 | -1.26 ± 0.2
79 | AUCCAGCAAUAUUACGCCAA | -2.78 ± 0.22 | -1.71 ± 0.18
80 | AUCCAGCAAUAUUACGCCCA | -0.76 ± 0.14 | -0.212 ± 0.15
81 | AUCCAGCAAUAUUACGCGAA | -0.821 ± 0.054 | -0.468 ± 0.07
82 | AUCCAGCAAUAUUACGCGAG | -0.838 ± 0.065 | -0.241 ± 0.078
83 | AUCCAGCAAUAUUACGCGCG | -2 ± 0.074 | -0.8 ± 0.1
84 | AUCCAGCAAUAUUACGCUAA | -0.717 ± 0.093 | -1.13 ± 0.077
85 | AUCCAGCAAUAUUACGCUAC | -4.03 ± 0.3 | -1.95 ± 0.24
86 | AUCCAGCAAUAUUACGCUCU | 0.335 ± 0.14 | 0.709 ± 0.15
87 | AUCCAGCAAUAUUACGGACG | 0.0252 ± 0.082 | -0.0752 ± 0.089
88 | AUCCAGCAAUAUUACGGCGA | -1.02 ± 0.098 | -0.399 ± 0.13
89 | AUCCAGCAAUAUUACGGGAC | -4.17 ± 0.27 | -3.04 ± 0.2
90 | AUCCAGCAAUAUUACGGGCA | -0.0628 ± 0.073 | -0.507 ± 0.083
91 | AUCCAGCAAUAUUACGGUAA | -1.02 ± 0.076 | -0.567 ± 0.073
92 | AUCCAGCAAUAUUACGGUAU | -2.88 ± 0.13 | -1.19 ± 0.12
93 | AUCCAGCAAUAUUACGUUGG | -4.05 ± 0.18 | -2.97 ± 0.16
94 | AUCGAGCAAUAUUACGAGGU | -3.26 ± 0.3 | -2.93 ± 0.4
95 | AUCGAGCAAUAUUACGAUCG | -2.9 ± 0.22 | -3.06 ± 0.34
96 | AUCGAGCAAUAUUACGCAGU | -2.07 ± 0.23 | -1.85 ± 0.33
